From PMC3271085, “Enhancement of Chemokine Function as an Immunomodulatory Strategy Employed by Human Herpesviruses” (PLoS Pathogens, 2012)

B1: human CCL28 (ligand)
chain: SEAILPIASSCCTEVSHHISRRLLERVNMCRIQRADGDCDLAAVILHVKRRRICVSPHNHTVKQWMKVQAAKKNGKGNVCHRKKHHGKRNSNRAHQGKHETYGHKTPY
notes: also called hCCL28; source: commercially available (Protocol S2)
B2: human CXCL14 (ligand)
chain: SKCKCSRKGPKIRYSDVKKLEMKPKYPHCEEKMVIITTKSVSRYRGQEHCLHPKLQSTKRFIKWYNAWNEKRRVYEE
notes: also called hCXCL14; source: commercially available (Protocol S2)
B3: human CXCL9 (ligand)
chain: TPVVRKGRCSCISTNQGTIHLQSLKDLKQFAPSPSCEKIEIIATLKNGVQTCLNPDSADVKELIKKWEKQVSQKKKQKNGKKHQKKKVLKVRKSQRSRQKKTT
notes: also called hCXCL9; source: commercially available (Protocol S2)
B4: human CCL22 (ligand)
chain: GPYGANMEDSVCCRDYVRYRLPLRVVKHFYWTSDSCPRPGVVLLTFRDKEICADPRVPWVKMILNKLSQ
B5: human CCL18 (ligand)
chain: AQVGTNKELCCLVYTSWQIPQKFIVDYSETSPQCPKPGVILLTKRGRQICADPNKKWVQKYISDLKLNA
notes: also called hCCL18; source: commercially available (Protocol S2)
B6: human CXCL11 (ligand)
chain: FPMFKRGRCLCIGPGVKAVKVADIEKASIMYPSNNCDKIEVIITLKENKGQRCLNPKSKQARLIIKKVERKNF
notes: also called hCXCL11; source: commercially available (Protocol S2)
B7: human CXCL13 (ligand)
chain: VLEVYYTSLRCRCVQESSVFIPRRFIDRIQILPRGNGCPRKEIIVWKKNKSIVCVDPQAEWIQRMMEVLRKRSSSTLPVPVFKRKIP
notes: also called hCXCL13; source: commercially available (Protocol S2)

target: soluble, secreted form of HSV-2 glycoprotein G (SgG2) (herpes simplex virus type 2) (UniProt P13290); assay: SPR; Biacore X; SgG1 or SgG2 amine-coupled to CM5 chips (dialysed against acetate buffer pH 5.0 for SgG1, pH 5.5 for SgG2); chemokines injected; screening at 100 nM and kinetic conditions as in ref. 16; Biaevaluation 3.2
Sequence (P13290 23-699): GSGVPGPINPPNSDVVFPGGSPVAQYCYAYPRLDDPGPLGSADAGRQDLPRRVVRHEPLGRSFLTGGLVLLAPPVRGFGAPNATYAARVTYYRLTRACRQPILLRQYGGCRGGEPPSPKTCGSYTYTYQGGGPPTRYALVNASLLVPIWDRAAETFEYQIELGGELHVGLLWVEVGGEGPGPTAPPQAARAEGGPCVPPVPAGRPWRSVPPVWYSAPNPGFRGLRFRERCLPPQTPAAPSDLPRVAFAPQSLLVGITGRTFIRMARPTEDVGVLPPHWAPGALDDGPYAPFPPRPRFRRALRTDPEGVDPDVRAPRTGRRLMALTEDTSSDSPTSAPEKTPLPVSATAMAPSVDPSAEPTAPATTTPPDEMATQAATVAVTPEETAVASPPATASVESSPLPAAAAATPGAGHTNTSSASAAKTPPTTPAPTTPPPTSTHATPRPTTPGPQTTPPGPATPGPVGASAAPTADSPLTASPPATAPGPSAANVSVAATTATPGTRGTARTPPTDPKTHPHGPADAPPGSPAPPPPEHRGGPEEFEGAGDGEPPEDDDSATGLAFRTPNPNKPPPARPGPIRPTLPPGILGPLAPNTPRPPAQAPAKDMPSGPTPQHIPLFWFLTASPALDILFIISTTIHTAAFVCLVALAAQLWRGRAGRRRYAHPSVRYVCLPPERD

Question: “human CCL25 (from UniProt O15444 24-150) (ligand)” was tested. Which Kd did it give?
Answer: 1.6 nM

Question: With “human CCL26 (from UniProt Q9Y258 24-94) (ligand)” as the molecule, how does the Kd read?
Answer: 1.72 nM

Question: How did the Kd turn out when “human CXCL12β (from UniProt P48061 22-93) (ligand)” was run?
Answer: 2.2 nM

Question: Which Kd does the source give for “human CXCL10 (from UniProt P02778 22-98) (ligand)” here?
Answer: 5.5 nM

Question: How did the Kd turn out when B1 was run?
Answer: 3.2 nM

Question: For B2, which Kd is on record?
Answer: 4.3 nM

Question: For B3, which Kd is on record?
Answer: 12.3 nM

Question: How did the Kd turn out when B4 was run?
Answer: 5.22 nM

Question: For B5, which Kd is on record?
Answer: 28 nM

Question: How did the Kd turn out when B6 was run?
Answer: 6 nM

Question: B7 was tested. Which Kd did it give?
Answer: 4.3 nM
